For series [1], the target named is T1, TadA7.10 (Escherichia coli? (laboratory-evolved …, UniProt P68398 1-167, W23R;H36L;P48A;R51L;L84F;A106V;D108N;H123Y;S146C;D147Y;R152P;E155V;I156F;K157N)). Kind of series: SEC; Superdex 200 Increase 10/300 GL, 20 mM HEPES pH7.5, 500 mM KCl; elution position between 44.0 and 29.0 kDa compared with the monomer mass of about 18.7 kDa.
Series [2] addresses TadA8e (E. coli) (UniProt P68398). The description is as above.
For series [3], the target named is TadA7.10-3mut (Escherichia coli? (laboratory-evolved …, UniProt P68398 1-167, W23R;H36L;P48A;R51L;L84F;A106V;D108N;T111R;D119N;H123Y;S146C;D147Y;R152P;E155V;I …)). The experiment in a line: MST; 5 mM Mg2+; MST: 20 mM HEPES pH 7.5, 200 mM KCl, 5 mM MgCl2, 1 mM DTT, 0.05% Tween-20; 100 nM DNA; 120 min at room temperature. As to conditions: protein: recombinant; tags: N-terminal non-cleavable His6; chain copies: 2; label: 5' 6-FAM; single-stranded.

The target in series [4] is T1, TadA7.10. The series is described as above. To be noted: protein: recombinant; tags: N-terminal non-cleavable His6; chain copies: 2; label: 5' 6-FAM; single-stranded.

In series [1], “TadA7.10 (from UniProt P68398 1-167) (enzyme)” showed a stoichiometry N of 2.
As to “TadA8e (from UniProt P68398 1-167) (enzyme)”, in series [2], the stoichiometry N came out at 2.

B1: 19-nt ssDNA (NTS of 6VPC with five bases mutated at either end) (ssDNA)
DNA: TTCTCTTCCACTTTCTTTT
As for B1, the Kd in series [3] turned out to be 38.5 nM; in series [4], 106 nM.

Values taken from paper PMC11335294, “Directed-evolution mutations enhance DNA-binding affinity and protein stability of the adenine base editor ABE8e”.
